Source: article doi:10.1101/2022.08.03.502720 (bioRxiv, 2022)

Biological target: the molecule itself
Assay: DEER

B1: CueR_19F58_L60H_G64H mutant (natural protein, E. coli)
chain: MNISDVAKITGLTSKAIRFYEEKGLVTPPMRSENGYRTYTQQHLNELTLLRQARQVGFNHEESHELVNLFNDPQRHSADVKRRTLEKVAEIERHIEELQSMRDQLLALANACPGDDSADCPIIENLSGCCHHRAG
modifications: 19F-phenylalanine at F58; Cu(II)-NTA spin label bound at the dHis site (L60H, G64H)
binding result: binds
